This assay has as its target T1, Fc-tagged receptor-binding domain (RBD) of the SARS-CoV-2 spike (S) protein (SARS-CoV-2, Wuhan-Hu-1 (GenBank …, UniProt P0DTC2)).
T1 construct: also called SARS-CoV-2 RBD; SARS-CoV-2 S RBD-Fc; not shown: Fc, C-terminal, kept
Briefly: BLI; Octet Red96e; Fc-tagged RBD loaded onto the biosensor (streptavidin biosensors as printed), Fab in solution; 1x PBS pH 7.4, 0.01% w/v BSA, 0.002% v/v Tween 20; 60 s association, 60 s dissociation; 1:1 binding model. Conditions: both partners purified. (BLI is a label-free optical method that tracks binding on a fibre tip over time.)

B1: COVA2-20 Fab, wild type (Y58) (Fab, V domains shown)
VH: EVQLVESGGGLIQPGGSLRLSCAASGFTVSSNYMSWVRQAPGKGLEWVSVIYSGGSTYYADSVKGRFTISRDNSKNTLYLQMNSLRAEDTAVYYCASPLLLTPPDYYYYMDVWGKGTMVTVSS
VL: DVVMTQSPSSLSVSVGDRVTITCRASQGIRNDLGWYQQKPGKAPKRLIYAASSLQSGVPSRFSGSGSGTEFTLTISSLQPEDFATYYCLQHNSYLWTFGQGTKLEIK
Take B1: the binding result is given as “binds”.

B2: COV107-23 Fab, wild type (F58) (Fab, V domains shown)
VH: EVQLVESGGGLIQPGGSLRLSCAASGFTVSSNYMSWVRQAPGKGLEWVSVIYSGGSTFYADSVKGRFTISRDNSKNTLYLQMNSLRAEDTAVYYCARDLGTGLFDYWGQGTLVTVSS
VL: DIQLTQSPSFLSASVGDRVTITCRASQGISSYLAWYQQKPGKAPKLLIYAASTLQSGVPSRFSGSGSGTEFTLTISSLQPEDFATYYCQQLDSYPPGTFGPGTKVDIK
notes: also called WT COV107-23; clonotype 1 antibody; source: Expi293F, transiently co-transfected, purified (CaptureSelect CH1-XL column)
The term Kd denotes the equilibrium constant for the complex coming apart. Lower therefore signals a tighter complex. Turning to B2, the affinity, expressed as Kd, was 1 nM.

Values taken from paper doi:10.1101/2021.01.26.428356, “Sequence signatures of two IGHV3-53/3-66 public clonotypes to SARS-CoV-2 receptor binding domain” (bioRxiv, 2021).
